A word on the IC50: it is the midpoint of a concentration-inhibition curve. Read a low IC50 as greater potency in that assay.

No end group written: not given here.

Results on 2 molecules are retold here after patent publication US20220175873A1.

For test [1], the target named is FQSE (SEQ ID NO:10)-specific binding sites in rat cortex membranes (rat). Put plainly: radioligand analysis, rat cortex membranes, incubation 10 min at 4 °C.
For test [2] the target is unchanged. Put plainly: radioligand analysis, rat cortex membranes, incubation 30 min at 24 °C.
In test [3] the target is NMDA receptors of rat hippocampal plasma membranes (rat). In words: radioligand analysis with [^3H]-FQSE and unlabeled FQSE on rat hippocampal membranes isolated for NMDA receptors (negative control).
The target in test [4] is FQSE (SEQ ID NO:10)-specific binding sites in rat cortex membranes (rat). Put plainly: radioligand analysis, rat cortex membranes, incubation 10 min at 37 °C.
Test [5] has the same target. Put plainly: radioligand analysis with [3H] FQSE and unlabeled FQSE on membranes isolated by various techniques.
For test [6] the target is unchanged. Put plainly: radioligand analysis, rat cortex membranes, incubation 20 min at 37 °C.
Test [7] shares this target. Put plainly: radioligand analysis, rat cortex membranes, incubation 20 min at 24 °C.
For test [8] the target is unchanged. Put plainly: radioligand analysis, rat cortex membranes, incubation 25 min at 24 °C (selected condition).
For test [9] the target is unchanged. In words: radioligand analysis, rat cortex membranes, buffer with added salts (NaCl, KCl, KH2PO4, CaCl2, MgCl2).
Test [10] shares this target. Put plainly: radioligand analysis, rat cortex membranes, incubation 30 min at 37 °C.
For test [11] the target is unchanged. In words: radioligand analysis, rat cortex membranes, incubation 20 min at 4 °C.
Test [12] shares this target. Put plainly: displacement of [^3H]-FQSE by unlabeled FQSE, rat cortex membranes, 25 min at room temperature.
In test [13] the target is GABAA receptor of rat cerebral cortex plasma membranes (rat). Put plainly: [^3H]-Flunitrazepam radioligand analysis (benzodiazepine site), 30 min incubation, 24 °C; FQSE 10^-5 M.
For test [14] the target is unchanged. Put plainly: [^3H]-Flunitrazepam radioligand analysis (benzodiazepine site), 25 min pre-incubation + 30 min incubation, 4 °C; FQSE 10^-5 M.
Test [15] shares this target. In words: [^3H]-Flunitrazepam radioligand analysis (benzodiazepine site), 30 min incubation, 4 °C; FQSE 10^-5 M.
Test [16] has the same target. In words: [^3H]-Flunitrazepam radioligand analysis (benzodiazepine site), 25 min pre-incubation + 30 min incubation, 24 °C; FQSE 10^-4 M.
The target is the same in test [17]. Put plainly: [^3H]-Flunitrazepam radioligand analysis (benzodiazepine site), 25 min pre-incubation + 30 min incubation, 24 °C; FQSE 10^-5 M.
Test [18] has the same target. Put plainly: [^3H]-Flunitrazepam radioligand analysis (benzodiazepine site), 30 min incubation, 4 °C; FQSE 10^-4 M.
Test [19] shares this target. Put plainly: [^3H]-Flunitrazepam radioligand analysis (benzodiazepine site), 30 min incubation, 24 °C; FQSE 10^-4 M.
Test [20] shares this target. Put plainly: [^3H]-Flunitrazepam radioligand analysis (benzodiazepine site), 25 min pre-incubation + 30 min incubation, 4 °C; FQSE 10^-4 M.

As for FQSE (also: tritium label ([3H]), position not given here) [[^3H]-FQSE (SEQ ID NO:10), tritium radiolabeled peptide], the % percentage of specific binding of total binding in test [1] stood at 47%; in test [2] it was 78%; in test [4], 72%; in [6], 79%; in [7], 75%; in [8], 86%. Besides, the % percentage of specific binding of total binding in test [10] came out at 77%; in test [11] it was 48%. The molecule also gave a difference between total and non-specific binding in test [3] of 11%. In [5], this molecule registered a specific FQSE binding percentage of the total binding of 0 to 47%. Further, the percentage of specific binding in [9] was 63%.
The molecule FQSE [FQSE (SEQ ID NO:10) peptide, unlabeled] yielded an IC50 in test [12] of 2 µM. For the same molecule, the Specific binding of [^3H]-Flunitrazepam, relative to control levels, % in test [13] was determined as 101%; in test [14] it was 101%; in test [15] it was 100%; in [16] it was 101%; in test [17], 99.8%; in [18] it was 100%. For the same molecule, the Specific binding of [^3H]-Flunitrazepam, relative to control levels, % in test [19] and in [20] was 101% in each case.
